Source: patent US20200360469A1 (UNIVERSITY OF THE SCIENCES, published 2020)

Target: full-length (FL) BRAF^G469A, 6x-HIS/BRAF^G469A/FLAG (human, UniProt P15056 2-766)
Assay: cell-based or functional assay

full-length (FL) BRAF^G469A, 6x-HIS/BRAF^G469A/FLAG, sequence (P15056 2-766 G469A): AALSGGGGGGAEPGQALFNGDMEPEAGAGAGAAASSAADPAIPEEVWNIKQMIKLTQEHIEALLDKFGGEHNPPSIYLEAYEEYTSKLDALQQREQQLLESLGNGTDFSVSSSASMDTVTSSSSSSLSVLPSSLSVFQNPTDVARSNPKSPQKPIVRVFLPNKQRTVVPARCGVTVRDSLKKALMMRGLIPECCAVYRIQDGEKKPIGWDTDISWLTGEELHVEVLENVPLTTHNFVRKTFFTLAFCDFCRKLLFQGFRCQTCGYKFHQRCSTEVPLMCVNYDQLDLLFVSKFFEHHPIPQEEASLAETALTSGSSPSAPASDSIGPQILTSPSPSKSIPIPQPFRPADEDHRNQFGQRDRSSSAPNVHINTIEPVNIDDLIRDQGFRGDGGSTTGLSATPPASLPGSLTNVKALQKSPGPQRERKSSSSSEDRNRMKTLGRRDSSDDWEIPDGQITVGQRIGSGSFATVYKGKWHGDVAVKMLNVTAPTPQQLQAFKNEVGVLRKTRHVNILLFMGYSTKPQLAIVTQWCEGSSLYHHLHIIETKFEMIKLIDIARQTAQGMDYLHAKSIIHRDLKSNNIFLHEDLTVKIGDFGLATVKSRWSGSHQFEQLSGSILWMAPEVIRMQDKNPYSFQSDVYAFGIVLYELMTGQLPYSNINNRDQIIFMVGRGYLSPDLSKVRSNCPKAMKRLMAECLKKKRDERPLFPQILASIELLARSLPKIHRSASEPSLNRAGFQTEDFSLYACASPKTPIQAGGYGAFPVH

THHVNILLFM [null-braftide]
IC50, ELISA-based kinase assay (phosphorylation of kinase-dead MEK): 2500 nM
